Measured values from publication PMC9377591.

Assays:
[1] = biological target: V5-tagged Steppke (Step-V5-His) (Drosophila); assay: co-IP; FLAG-tagged Jub constructs co-expressed with a V5-tagged partner in Drosophila S2 cells; lysis and washes in RIPA buffer (140 mM NaCl, 10 mM Tris-HCl pH 8.0, 1 mM EDTA, 1.0% Triton X-100, 0.1% SDS, 0.1% sodium deoxycholate); precipitated with anti-V5 agarose beads, blotted with anti-FLAG; band intensity normalised to full length Jub
[2] = biological target: N2 domain of α-catenin, tagged with V5 (Drosophila) (UniProt P35220); assay: as above
UniProt P35220, sequence (P35220 whole entry, the tested form may be a part): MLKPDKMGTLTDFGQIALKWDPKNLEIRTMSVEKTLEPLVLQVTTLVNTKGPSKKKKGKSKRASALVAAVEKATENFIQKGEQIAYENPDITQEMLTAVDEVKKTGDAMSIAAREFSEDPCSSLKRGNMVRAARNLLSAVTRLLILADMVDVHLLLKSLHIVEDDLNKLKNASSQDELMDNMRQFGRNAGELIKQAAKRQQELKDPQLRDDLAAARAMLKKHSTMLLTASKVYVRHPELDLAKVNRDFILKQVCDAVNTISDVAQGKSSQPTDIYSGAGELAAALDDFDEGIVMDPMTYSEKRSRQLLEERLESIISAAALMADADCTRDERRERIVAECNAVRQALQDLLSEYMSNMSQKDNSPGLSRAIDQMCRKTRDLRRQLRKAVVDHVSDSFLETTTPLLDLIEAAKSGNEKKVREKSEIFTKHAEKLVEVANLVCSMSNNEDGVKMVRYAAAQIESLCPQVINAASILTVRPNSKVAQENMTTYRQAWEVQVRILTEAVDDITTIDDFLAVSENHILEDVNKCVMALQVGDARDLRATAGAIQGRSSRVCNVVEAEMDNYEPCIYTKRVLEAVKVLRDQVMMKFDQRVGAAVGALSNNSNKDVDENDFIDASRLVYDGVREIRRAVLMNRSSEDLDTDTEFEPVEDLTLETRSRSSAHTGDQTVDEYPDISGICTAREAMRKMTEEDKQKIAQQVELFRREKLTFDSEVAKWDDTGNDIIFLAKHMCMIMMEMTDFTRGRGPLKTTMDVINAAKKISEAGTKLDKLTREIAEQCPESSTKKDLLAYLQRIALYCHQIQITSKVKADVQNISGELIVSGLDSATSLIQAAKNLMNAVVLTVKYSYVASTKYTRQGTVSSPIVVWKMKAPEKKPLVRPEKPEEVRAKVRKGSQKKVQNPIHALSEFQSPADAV

Substance | co-precipitation relative to full length Jub (% of full length) [1] | co-immunoprecipitation relative to full length Jub (% of full length) [2]
Jub preLIM+LIM1 (1-559 and 693-718), FLAG-tagged (from UniProt Q9VY77 1-559; Q9VY77 693-718) (domain or fragment) | 30 | 
Jub preLIM+LIM2 (1-505, 571-623, and 693-718), FLAG-tagged (from UniProt Q9VY77 1-505; Q9VY77 571-623; Q9VY77 693-718) (domain or fragment) | > 64 | 
Jub preLIM+LIM3 (1-505 and 631-718), FLAG-tagged (from UniProt Q9VY77 1-505; Q9VY77 631-718) (domain or fragment) | 30 | 
Jub preLIM+LIM12 (1-623 and 693-718), FLAG-tagged (from UniProt Q9VY77 1-623; Q9VY77 693-718) (domain or fragment) | > 64 | 170
Jub preLIM+LIM13 (1-570 and 631-718), FLAG-tagged (from UniProt Q9VY77 1-570; Q9VY77 631-718) (domain or fragment) | > 64 | 50
Jub preLIM+LIM23 (1-505, 571-718), FLAG-tagged (from UniProt Q9VY77 1-505; Q9VY77 571-718) (domain or fragment) | > 64 | 780
Jub-preLIM (1-505), FLAG-tagged (from UniProt Q9VY77 1-505) (domain or fragment) |  | 24
